Three molecules from PMC9280364, “MdNAC4 Interacts With MdAPRR2 to Regulate Nitrogen Deficiency-Induced Leaf Senescence in Apple (Malus domestica)” can be followed below.

For data set [1], the target named is T1, MdNAC4-GST (Malus domestica, UniProt B6DXL4 1-350).
T1 sequence: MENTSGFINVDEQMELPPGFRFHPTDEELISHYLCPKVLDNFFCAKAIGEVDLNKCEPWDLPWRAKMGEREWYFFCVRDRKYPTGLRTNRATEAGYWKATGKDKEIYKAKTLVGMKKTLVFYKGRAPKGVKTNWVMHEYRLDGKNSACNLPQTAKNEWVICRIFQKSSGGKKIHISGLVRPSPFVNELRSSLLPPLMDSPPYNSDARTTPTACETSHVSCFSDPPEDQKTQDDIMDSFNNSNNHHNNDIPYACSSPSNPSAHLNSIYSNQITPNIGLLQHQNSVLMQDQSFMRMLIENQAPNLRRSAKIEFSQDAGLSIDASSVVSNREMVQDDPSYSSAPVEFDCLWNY
The data set is described as follows: EMSA; EMSA binding buffer (composition not given), 24 °C, 30 min in the dark. The following applies: protein: recombinant; tags: GST (pGEX-4T-1 type primers GST-MdNAC4-F/R); chain copies: 2; blunt. (Mobility shift assays separate free from complexed probe on a gel.)

Data set [2] addresses T1, MdNAC4-GST. Nature of the data set: EMSA; unlabeled probe competes; EMSA binding buffer (composition not given), 24 °C, 30 min in the dark. The conditions noted are these: protein: recombinant; tags: GST (pGEX-4T-1 type primers GST-MdNAC4-F/R); chain copies: 2; label: biotin; blunt.

B1: MdPAO Mut probe (dsDNA)
DNA 1: AGTTATCCATCCGTCTAAAACCAAT
DNA 2: ATTGGTTTTAGACGGATGGATAACT
With B1, the binding result with MdNAC4-GST [1] was “no binding”.

B2: MdPAO promoter probe (ABRE) (dsDNA)
DNA 1: AGTTATCCATACGTGTAAAACCAAT
DNA 2: ATTGGTTTTACACGTATGGATAACT
As for B2, the binding result with MdNAC4-GST [2] was “binds”.

B3: MdNYC1 promoter probe (ABRE) (dsDNA)
DNA 1: ATATAGGCACGTGAAGGGAGGACAGAGATG
DNA 2: CATCTCTGTCCTCCCTTCACGTGCCTATAT
Take B3: the binding result with MdNAC4-GST [2] is on record as “binds”.
